Experiments:
[1] = molecular target: 1:1 8D6 Fab/IgE-Fc complex; assay: SPR; sandwich: about 100 RU of His-tagged IgE-Fc captured on an 8D6 Fab surface, then a second 8D6 Fab injected at 30 uL/min; HBS-P
[2] = molecular target: His-tagged IgE-Fc (human); assay: as above
Chain of His-tagged IgE-Fc (human) (P01854 other isoform, or with tags, fused parts or gaps): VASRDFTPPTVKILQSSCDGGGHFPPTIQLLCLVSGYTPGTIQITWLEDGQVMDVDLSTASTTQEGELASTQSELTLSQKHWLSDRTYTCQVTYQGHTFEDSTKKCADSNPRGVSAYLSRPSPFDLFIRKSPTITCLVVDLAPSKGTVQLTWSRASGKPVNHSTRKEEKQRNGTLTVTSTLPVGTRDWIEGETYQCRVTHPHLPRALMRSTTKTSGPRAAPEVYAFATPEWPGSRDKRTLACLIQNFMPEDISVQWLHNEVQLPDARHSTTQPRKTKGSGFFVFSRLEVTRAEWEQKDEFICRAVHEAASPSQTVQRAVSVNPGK

Kd [1]: 0.06 nM | koff [1]: 6e-05 s⁻¹ | kon [1]: 1e+06 M⁻¹ s⁻¹ | stoichiometry N [2]: 2
B1: 8D6 Fab (Fab, V domains shown)
VH: QVQLQQSGAELAKPGASVMLSCKASGYTFNGYWMHWVKQRPGQDLEWIGYINPTTGHTEYNQKFKDKATLTADESSNTAYIELSSLTSDDSAVYYCARQEYRHSWFAYWGQGTLVTVSA
VL: DIVLTQSPASLAVSLGQRATISCKASQSVDYDGDTYMNWYHQKPGQPPKLLIYAASNLDSGIPARFSGSGSGTDFTLNIHPVEEEDAATYYCQQTNEDPWTFGGGTKLEIK

From paper PMC6070508
